Where no end group is shown, it is not given here. [ ]: non-standard residue; d: D form. pY = N[C@@H](Cc1ccc(OP(=O)(O)O)cc1)C(=O)O

One may read the stoichiometry N as a count of units in the complex or per binding partner.

Series [1] concerns the target T1, human SRC SH2 domain (Gln147-Lys252), wild type (human, UniProt P12931-1 147-252).
T1 construct: SRC SH2 domain, human, residues Gln147-Lys252, cloned in pETM11; numbering on UniProt P12931-1; Used after pretreatment with 1 mM TCEP (reduced) or 0.1 mM pervanadate (cysteines oxidised; which residues were oxidised in this sample was not determined); The two states are told apart by the assay (a1, a2); also called SH2^WT; SRC SH2^WT
Put plainly: ITC; peptide (400 uM) titrated into SRC SH2 (40 uM) in the cell, 25 C, MicroCal PEAQ-ITC Automated; SH2 domain pretreated with 1 mM TCEP (reducing conditions). The note with it: both partners purified.

Series [2] concerns the molecule itself. Put plainly: non-reducing SDS-PAGE and immunoblot; HEK293T cells, PV time course, washed with PBS with catalase and NEM, lysed in 2% SDS with NEM; disulfide-linked dimer as slower migrating species. In general terms: In western blotting, separated proteins are transferred to a membrane and probed.

B1: optimized SRC binding phosphopeptide (EPQpYEEIP) (peptide)
peptide: EPQ[pY]EEIP
notes: source: synthetic peptide, bought: Biosynth (95% purity)
As for B1, the binding result in series [1] is reported as “binds”.

B2: peroxiredoxin 1 (PRDX1) (natural protein, human (endogenous in HEK293T), UniProt Q06830 1-199, looked up)
chain: MSSGNAKIGHPAPNFKATAVMPDGQFKDISLSDYKGKYVVFFFYPLDFTFVCPTEIIAFSDRAEEFKKLNCQVIGASVDSHFCHLAWVNTPKKQGGLGPMNIPLVSDPKRTIAQDYGVLKADEGISFRGLFIIDDKGILRQITVNDLPVGRSVDETLRLVQAFQFTDKHGEVCPAGWKPGSDTIKPDVQKSKEYFSKQK
notes: peroxiredoxin 1, endogenous in HEK293T cells; Disulfide-linked dimer seen on non-reducing gels; source: endogenous, HEK293T lysate
Regarding B2, in series [2], the “stoichiometry N” value turned out to be 2.
